One may read the stoichiometry N as the number of molecules, sites or subunits per partner or assembly.

Consider 5 molecules from doi:10.1101/511758 (bioRxiv, 2019).

Like-named read-outs stand apart in the source and are kept apart here.

Series [1] has as its target T1, HelQ (Homo sapiens, UniProt Q8TDG4).
T1 sequence: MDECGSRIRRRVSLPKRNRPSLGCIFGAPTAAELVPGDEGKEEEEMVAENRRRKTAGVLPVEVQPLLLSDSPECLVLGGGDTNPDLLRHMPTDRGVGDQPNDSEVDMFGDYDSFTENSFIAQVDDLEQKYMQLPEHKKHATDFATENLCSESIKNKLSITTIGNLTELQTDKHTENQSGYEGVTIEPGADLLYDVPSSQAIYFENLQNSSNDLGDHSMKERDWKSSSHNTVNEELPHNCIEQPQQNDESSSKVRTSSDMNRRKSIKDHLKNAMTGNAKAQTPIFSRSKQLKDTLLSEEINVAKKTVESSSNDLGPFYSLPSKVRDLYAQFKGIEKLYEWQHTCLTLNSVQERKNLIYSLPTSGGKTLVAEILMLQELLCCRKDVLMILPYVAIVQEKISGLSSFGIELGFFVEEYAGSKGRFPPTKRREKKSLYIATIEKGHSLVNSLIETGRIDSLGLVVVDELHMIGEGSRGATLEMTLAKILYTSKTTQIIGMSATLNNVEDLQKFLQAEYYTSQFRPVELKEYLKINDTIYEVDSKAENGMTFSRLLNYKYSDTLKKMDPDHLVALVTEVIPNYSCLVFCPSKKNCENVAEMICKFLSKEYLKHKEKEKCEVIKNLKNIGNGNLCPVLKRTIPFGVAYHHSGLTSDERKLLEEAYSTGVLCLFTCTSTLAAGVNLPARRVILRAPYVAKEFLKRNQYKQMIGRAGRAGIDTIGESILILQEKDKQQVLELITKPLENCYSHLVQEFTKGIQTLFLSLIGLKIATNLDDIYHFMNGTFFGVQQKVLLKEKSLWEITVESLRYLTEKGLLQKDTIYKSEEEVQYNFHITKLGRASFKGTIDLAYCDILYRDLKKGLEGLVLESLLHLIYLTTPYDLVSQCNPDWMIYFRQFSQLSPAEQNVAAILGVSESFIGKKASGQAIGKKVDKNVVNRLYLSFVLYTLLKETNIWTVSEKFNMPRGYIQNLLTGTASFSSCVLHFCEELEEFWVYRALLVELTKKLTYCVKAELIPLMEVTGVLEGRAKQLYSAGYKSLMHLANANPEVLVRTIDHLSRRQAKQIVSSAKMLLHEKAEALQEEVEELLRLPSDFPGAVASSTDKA
Nature of the series: EMSA. In general terms: Mobility shift assays separate free from complexed probe on a gel.

In series [2] the target is SSB (Escherichia coli, UniProt P0AGE0 1-178). Nature of the series: EMSA.
SSB, sequence (P0AGE0 whole entry): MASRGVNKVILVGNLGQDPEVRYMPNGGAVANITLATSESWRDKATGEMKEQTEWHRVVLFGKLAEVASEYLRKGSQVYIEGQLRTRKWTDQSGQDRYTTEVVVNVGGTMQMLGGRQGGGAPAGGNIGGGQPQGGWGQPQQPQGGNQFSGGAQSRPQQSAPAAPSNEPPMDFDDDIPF
Series [3] deals with T1, HelQ. Nature of the series: EMSA. This is another data set of the same source.
The target in series [4] is T2, N-HelQ (Homo sapiens, UniProt Q8TDG4 1-417).
T2 sequence: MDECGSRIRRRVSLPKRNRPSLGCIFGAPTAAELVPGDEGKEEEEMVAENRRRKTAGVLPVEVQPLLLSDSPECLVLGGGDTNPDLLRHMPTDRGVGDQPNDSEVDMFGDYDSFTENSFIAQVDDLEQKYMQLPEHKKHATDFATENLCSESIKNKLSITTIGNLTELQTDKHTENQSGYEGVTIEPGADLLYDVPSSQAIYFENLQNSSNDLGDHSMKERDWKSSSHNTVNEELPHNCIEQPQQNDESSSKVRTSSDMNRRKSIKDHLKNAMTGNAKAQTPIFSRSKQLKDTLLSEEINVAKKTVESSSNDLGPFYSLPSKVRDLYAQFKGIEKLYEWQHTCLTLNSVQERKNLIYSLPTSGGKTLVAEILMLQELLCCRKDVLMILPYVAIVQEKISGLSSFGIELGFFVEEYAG
Nature of the series: EMSA.

For series [5], the target named is HelQ;RPA (Homo sapiens;Homo sapiens, UniProt Q8TDG4;P27694;P15927;P35244 ;1-616;1-270;1-121, |). Nature of the series: EMSA.
HelQ;RPA, sequence (P27694 whole entry, chain 2 of 3): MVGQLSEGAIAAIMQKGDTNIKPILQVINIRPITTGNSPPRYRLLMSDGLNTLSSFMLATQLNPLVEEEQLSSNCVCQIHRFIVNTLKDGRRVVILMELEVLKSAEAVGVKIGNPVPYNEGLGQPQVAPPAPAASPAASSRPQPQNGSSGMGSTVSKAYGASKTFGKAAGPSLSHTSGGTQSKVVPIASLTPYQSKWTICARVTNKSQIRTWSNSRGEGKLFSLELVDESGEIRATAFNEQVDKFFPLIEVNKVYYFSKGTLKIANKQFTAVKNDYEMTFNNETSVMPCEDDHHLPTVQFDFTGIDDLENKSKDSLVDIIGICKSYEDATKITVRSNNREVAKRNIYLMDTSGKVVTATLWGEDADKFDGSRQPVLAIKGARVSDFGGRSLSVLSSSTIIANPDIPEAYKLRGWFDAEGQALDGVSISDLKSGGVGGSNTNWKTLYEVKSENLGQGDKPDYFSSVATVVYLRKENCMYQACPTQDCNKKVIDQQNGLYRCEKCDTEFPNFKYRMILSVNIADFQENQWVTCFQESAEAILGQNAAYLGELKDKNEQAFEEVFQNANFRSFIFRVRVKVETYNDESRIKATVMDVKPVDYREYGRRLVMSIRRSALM
HelQ;RPA, sequence (P15927 whole entry, chain 3 of 3): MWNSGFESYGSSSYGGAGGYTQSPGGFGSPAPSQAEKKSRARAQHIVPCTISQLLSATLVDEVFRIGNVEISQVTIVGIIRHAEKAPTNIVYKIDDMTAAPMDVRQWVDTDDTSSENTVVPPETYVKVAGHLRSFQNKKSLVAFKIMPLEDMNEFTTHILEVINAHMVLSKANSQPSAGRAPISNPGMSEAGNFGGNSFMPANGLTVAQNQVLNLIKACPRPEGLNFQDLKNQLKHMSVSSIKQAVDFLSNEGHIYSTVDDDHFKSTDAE
HelQ;RPA, sequence (P35244 whole entry, chain 4 of 3): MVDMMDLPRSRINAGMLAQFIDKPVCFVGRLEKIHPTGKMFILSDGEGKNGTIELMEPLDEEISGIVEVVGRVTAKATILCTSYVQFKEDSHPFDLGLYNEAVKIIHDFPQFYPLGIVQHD
Series [6] deals with N-HelQ;RPA (Homo sapiens;Homo sapiens, UniProt Q8TDG4;P27694;P15927;P35244 1-417;1-616;1-270;1-121, |). Nature of the series: EMSA.
N-HelQ;RPA, sequence (P27694 whole entry, chain 2 of 3): as the sequence (P27694 whole entry, chain 2 of 3) above
N-HelQ;RPA, sequence (P15927 whole entry, chain 3 of 3): as the sequence (P15927 whole entry, chain 3 of 3) above
N-HelQ;RPA, sequence (P35244 whole entry, chain 4 of 3): as the sequence (P35244 whole entry, chain 4 of 3) above
Series [7] concerns the molecule itself. Nature of the series: SEC-MALS. A general note: Size exclusion chromatography separates by hydrodynamic size, large species first.

B1: Fork-Me (mixed)
DNA 1: GTCGGATCCTCTAGACAGCATCCATGATCACTGGCACTGGTAGAATTCGGC
DNA 2: CAACGTCATAGACGATTACATTGCTACATGGATGCTGTCTAGAGGATCCGA
modifications: single methylphosphonate linkage in the 3'-5' tracking strand (position marked only in Fig S6)
In the case of B1, in series [1], the binding result is “binds”.

B2: Fork-A (mixed)
DNA 1: GTCGGATCCTCTAGACAGCTCCATGATCACTGGCACTGGTAGAATTCGGC
DNA 2: CAACGTCATAGACGATTACATTGCTACATGGAGCTCTCTAGAGGATCCGA
With B2, the binding result is reported as “binds” in series [2]; “binds” in series [3]; “no binding” in series [4]; “binds” in series [5]; “binds” in series [6].

B3: Fork-S (mixed)
DNA 1: GTCGGATCCTCTAGACAGCTCCATGATCACTGGCACTGGTAGAATTCGGC
DNA 2: CAACGTCATAGACGATTACATTGCTACATGGAGCTCTCTAGAGGATCCGA
modifications: single phosphorothioate linkage in the 3'-5' tracking strand (position marked only in Fig S6)
Take B3: in series [1], the binding result was “binds”.

B4: Fork-AP (mixed)
DNA 1: GTCGGATCCTCTAGACAGCTCCATGATCACTGGCACTGGTAGAATTCGGC
DNA 2: CAACGTCATAGACGATTACATTGCTACATGGAGCTCTCTAGAGGATCCGA
modifications: single abasic site in the 3'-5' tracking strand (position marked only in Fig S6)
Turning to B4, the binding result in series [1] was “binds”.

B5: human HelQ helicase (full-length HelQ) (enzyme)
chain: MDECGSRIRRRVSLPKRNRPSLGCIFGAPTAAELVPGDEGKEEEEMVAENRRRKTAGVLPVEVQPLLLSDSPECLVLGGGDTNPDLLRHMPTDRGVGDQPNDSEVDMFGDYDSFTENSFIAQVDDLEQKYMQLPEHKKHATDFATENLCSESIKNKLSITTIGNLTELQTDKHTENQSGYEGVTIEPGADLLYDVPSSQAIYFENLQNSSNDLGDHSMKERDWKSSSHNTVNEELPHNCIEQPQQNDESSSKVRTSSDMNRRKSIKDHLKNAMTGNAKAQTPIFSRSKQLKDTLLSEEINVAKKTVESSSNDLGPFYSLPSKVRDLYAQFKGIEKLYEWQHTCLTLNSVQERKNLIYSLPTSGGKTLVAEILMLQELLCCRKDVLMILPYVAIVQEKISGLSSFGIELGFFVEEYAGSKGRFPPTKRREKKSLYIATIEKGHSLVNSLIETGRIDSLGLVVVDELHMIGEGSRGATLEMTLAKILYTSKTTQIIGMSATLNNVEDLQKFLQAEYYTSQFRPVELKEYLKINDTIYEVDSKAENGMTFSRLLNYKYSDTLKKMDPDHLVALVTEVIPNYSCLVFCPSKKNCENVAEMICKFLSKEYLKHKEKEKCEVIKNLKNIGNGNLCPVLKRTIPFGVAYHHSGLTSDERKLLEEAYSTGVLCLFTCTSTLAAGVNLPARRVILRAPYVAKEFLKRNQYKQMIGRAGRAGIDTIGESILILQEKDKQQVLELITKPLENCYSHLVQEFTKGIQTLFLSLIGLKIATNLDDIYHFMNGTFFGVQQKVLLKEKSLWEITVESLRYLTEKGLLQKDTIYKSEEEVQYNFHITKLGRASFKGTIDLAYCDILYRDLKKGLEGLVLESLLHLIYLTTPYDLVSQCNPDWMIYFRQFSQLSPAEQNVAAILGVSESFIGKKASGQAIGKKVDKNVVNRLYLSFVLYTLLKETNIWTVSEKFNMPRGYIQNLLTGTASFSSCVLHFCEELEEFWVYRALLVELTKKLTYCVKAELIPLMEVTGVLEGRAKQLYSAGYKSLMHLANANPEVLVRTIDHLSRRQAKQIVSSAKMLLHEKAEALQEEVEELLRLPSDFPGAVASSTDKA
As to B5, the “stoichiometry N” value in series [7] was 2.
